Measurements as given in the DeepSol protein solubility set.

Assay: soluble on expression in E. coli; label from the status in PepcDB or PDB records

| Sequence | soluble on expression in E. coli |
| --- | --- |
| PIELLPETPSQTAGPYVHIGLALEAAGNPTRDQEIWNRLAKPDAPGEHILLLGQVYDGNGHLVRDSFLEVWQADANGEYQDAYNLENAFNSFGRTATTFDAGEWTLHTVKPGVVNNAAGVPMAPHINISLFARGINIHLHTRLYFDDEAQANAKCPVLNLIEQPQRRETLIAKRCEVDGKTAYRFDIRIQGEGETVFFDF | soluble |
| MKTPTRVSFEKKIHTPPSGDRDAERSPPKKFLRGLSGKVFRKTPEFKKQQMPTFGYIEESQFTPNLGLMMSKRGNIPKPLNLSKPISPPPSLKKTAGSVASGFSKTGQLSALQSPVNITSSNKYNIKATNLTTSLLRESISDSTTMCDTLSDINLTVMDEDYRIDGDSYYEEDSPTFMISLERNIKKCNSQFSPKRYIGEKCLICEESISSTFTGEKVVESTCSHTSHYNCYLMLFETLYFQGKFPECKICGEVSKPKDKDIVPEMVSKLLTGAGAHDDGPSSNMQQQWIDLKTARSFTGEFPQFTPQEQLIRTADISCDGFRTPRLSNSNQFEAVSYLDSPFLNSPFVNKMATTDPFDLSDDEKLDCDDEIDESAAEVWFSKTGGEHVMVSVKFQEMRTSDDLGVLQDVNHVDHEELEEREKEWKKKIDQYIETNVDKDSEFGSLILFDKLMYSDDGEQWVDNNLVILFSKFLVLFDFEEMKILGKIPRDQFYQVIKFNEDVLLCSLKSTNIPEIYLRFNENCEKWLLPKWKYCLENSSLETLPLSEIVSTVKELSHVNIIGALGAPPDVISAQSHDSRLPWKRLHSDTPLKLIVCLNLSHADGELYRKRVLKSVHQILDGLNTDDLLGIVVVGRDGSGVVGPFGTFIGMINKNWDGWTTFLDNLEVVNPNVFRDEKQQYKVTLQTCERLASTSAYVDTDDHIATGYAKQILVLNGSDVVDIEHDQKLKKAFDQLSYHWRYEISQRRMTPLNASIKQFLEELHTKRYLDVTLRLPQATFEQVYLGDMAAGEQKTRLIMDEHPHSSLIEIEYFDLVKQQRIHQTLEVPNL | not soluble |
| GPGSMLRWQMQPVRTSVRNFIASGFPSKKLRYARLVDVEECASRPQFQKLLQSYLSDFFAKSHENGSTGSSPWFTAVPPSLRNSVEETVNYLGMLVAIDFRHWGEDPPDATPTGSRVENICGFYAELPEGSAETSGSVSYGGKRLIRGSMAMVHLLCRAVEVYHLNWHCPQFLQQFATTEDAMEALERCFLGYREDGHTSMWMPAARERVELLLSLSRSLVEKDTSFFKMLCLSEGYLYHPIFPHLGFVEMLVELHPRYYDVCVLRGEVGGGKDSDQGDEIVIPMLKLAQLTVMAIEEAVSAMDTVAANTPNVTEAPFPFSGAHGVFKDKHHLTVCCDYQLPKALRSLGLVEYDSYLASLVDTGVLLAAGGVEECCIRVAALVASDLLLDYLRSSCACTTGREWRPESTSRVWDAPALDCMLWWIGRHYVDSAVKHHLCRTIMY | not soluble |
| MSAYIAPSQIAQRQLEYFNGKHVLVAGEVEDMFPLELTAHCESVEVFTSNYSYFRQIRHSDKIKSHFGSEFDVETQADMLLLYWPKAKAEAEYLLAMLMAKLGVNTEIVVVGENRSGVKSIEKMFKEYGPVNKYDSARRCSFYWGNCLNEPKPFNQEEWFKSYTVTLGEQSLTVKSLPGVFSHGEFDLGSRLLLETLPNLSGKVLDFGCGAGVLGAFMAKANPEIAIEMCDINAYAITSSQATLEANGLSGRVFASDIYSDTANDYRFIISNPPFHSGLDTNYNAAETLLGHAPQHLSNHGEMIIVANSFLKYPPIIENAFNNCETLNKTNKFSIYYAKKS | not soluble |
| GMHSALQLRSRIKSSGELELSLDSIDTPHPGPDEVLIRIEASPLNPSDLGLLFGAADMSTAKASGTAERPIVTARVPEGAMRSMAGRLDASMPVGNEGAGVVVEAGSSPAAQALMGKTVAAIGGAMYSQYRCIPADQCLVLPEGATPADGASSFVNPLTALGMVETMRLEGHSALVHTAAASNLGQMLNQICLKDGIKLVNIVRKQEQADLLKAQGAVHVCNAASPTFMQDLTEALVSTGATIAFDATGGGKLGGQILTCMEAALNKSAREYSRYGSTTHKQVYLYGGLDTSPTEFNRNFGMAWGMGGWLLFPFLQKIGRERANALKQRVVAELKTTFASHYSKEISLAEVLDLDMIAVYNKRATGEKYLINPNKGLAG | soluble |
| MSLTIGFIFDLDGVITDTAKFHYQAWKALADSLGIPIDETFNETLKGISRMDSLDRILVHGHRENAFTPAEKEALAQQKNDHYVQLLEQLTTEDVLPGVVPLLQQAQARHIPCAVASASKNAPLILEKLGVRAYFATIVDPDSLSKGKPDPEIFLAAADSIGVLPQNAIGFEDAQSGIDGLKAAGIYAVGLSASQPLIGADMQVSEMTELSVDALLNREGHHHHHH | soluble |
| NVQEEVTCPICLELLTEPLSLDCGHSLCRACITVSNKEAVTSMGGKSSCPVCGISYSFEHLQANQHLANIVE | soluble |
| PQQSTWQMATNTPLECRLVHPIPNYGDAEFSSRAGKKINLDFELKMRRPMGDTRNVSLVSMPPVWRPGEGADRITNLQFFKQFDGYIGGQTAWSLLSELEKGRYPTFSYQDWQSRDQRIEVALSSVLFQQPYNEFSDCISKLLPYS | not soluble |
| SLESYLRLSEVDKQILHSHALMLDGLGNFFGSTHEVILHSLENLESSAIKVINGHFSNRKEGAPITDMALKMLSQVESEHDYAVKPYYNKNQKGVILKSSTIPVIGENDRIIGLICINMHLEMPLIDYLQDLLPSGQQNDMSQELKNSEHFSDNIDELITTSLTKVKQAVESDPNVSHLNQNKEIVIRLYDQGIFNLKDSVIKIADRLGISKNTIYLHIRNHKKEEA | soluble |
| MKPEDFRTDNKRPLTGEEYLKSLQDGREIYIYGERVKDVTTHPAFRNAAASVAQLYDALHKPSMQDTLCWNTDTGSGGYTHKFFRVAKSADDLRQQRDAIAEWSRLSYGWMGRTPDYKAAFGCALGANPAFYGQFEQNARNWYTRIQETGLYFNHAIVNPPIDRHKPADEVKDVYIKLEKETDAGIIVSGAKVVATNSALTHYNMIGFGSAQVMGENPDFALMFVAPMDAEGVKLISRASYEMVAGATGSPFDYPLSSRFDENDAILVMDKVLIPWENVLIYRDFDRCRRWTMEGGFARMYPLQACVRLAVKLDFITALLKKSLECTGTVEFRGVQADLGEVVAWRNMFWALSDSMCSEATPWVNGAWLPDHAALQTYRVMAPMAYAKIKNIIERNVTSGLIYLPSSARDLNNPQIDQYLAKYVRGSNGMDHVERIKILKLMWDAIGSEFGGRHELYEINYSGSQDEIRLQCLRQAQSSGNMDKMMAMVDRCLSEYDQNGWTVSHLHNNDDINQLDKLLK | not soluble |
| MSLFPSSEVEAKRTTLNLELESNTDRLLQEKDDLLPQSVTNSSDEGTPFAQVEGASDDNTAEQDSDKPGASVADADTKPVDPEWKTITVASGDTLSTVFTKAGLSTSAMHDMLTSSKDAKRFTHLKVGQEVKLKLDPKGELQALRVKQSELETIGLDKTDKGYSFKREKAQIDLHTAYAHGRITSSLFVAGRNAGLPYNLVTSLSNIFGYDIDFALDLREGDEFDVIYEQHKVNGKQVATGNILAARFVNRGKTYTAVRYTNKQGNTSYYRADGSSMRKAFIRTPVDFARISSRFSLGRRHPILNKIRAHKGVDYAAPIGTPIKATGDGKILEAGRKGGYGNAVVIQHGQRYRTIYGHMSRFAKGIRAGTSVKQGQIIGYVGMTGLATGPHLHYEFQINGRHVDPLSAKLPMADPLGGADRKRFMAQTQPMIARMDQEKKTLLALNKQREGHHHHHH | soluble |
| AMGSVTVHSSEPEVRIPENNPVKLSCAYSGFSSPRVEWKFDQGDTTRLVCYNNKITASYEDRVTFLPTGITFKSVTREDTGTYTCMVSEEGGNSYGEVKVKLIVLVPPSKPTVNIPSSATIGNRAVLTCSEQDGSPPSEYTWFKDGIVMPTNPKSTRAFSNSSYVLNPTTGELVFDPLSASDTGEYSCEARNGYGTPMTSNAVRMEAVE | soluble |
| MGSDKIHHHHHHMPRVIKHPEIRREDILDHAQALFLTQGYDRASLNDVIASAGISKGAFYHYFASKEALLEALADRFARQALAGVQGVVDDPGLDPLGRLNGLLSQSRQAKIETAAEAWALFETMFRPENLVLFHRINLAANASFSPLLVKIIRQGVEDGTFRTFDPEGVADIVMQFGLATHDVVAKAIAGGSDADMEVAIEVLEKRVRLYEIALDRILGLPDGSIRIGEPGYIRAVMTARRKADKAR | not soluble |
| MALVPVYCLCRQPYNVNHFMIECGLCQDWFHGSCVGIEEENAVDIDIYHCPDCEAVFGPSIMKNWH | soluble |
